The record followed here is the nanobody polyreactivity screen of Harvey et al. (2022).

The data set can be described thus: yeast display, Sf9 membrane polyspecificity reagent, FACS + sequencing; frameworks hold sequencing errors. Put shortly: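 A synthetic nanobody library was expressed on Saccharomyces cerevisiae BJ5465 by galactose induction for 36–48 hours. The library was stained for 1 hour at 4 °C with 10% biotinylated, detergent-solubilized Sf9 membrane reagent and enriched with streptavidin microbeads before FACS. Low and high (top ~1%) gates were set on anti-HA fluorescence for expression and streptavidin fluorescence for reagent binding, and each polyreactivity label reflects the gate of origin.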
For “QVQLVESGVGLVQAGGSLRLSCAASGSIFYRYAMGWYRQAPGKEREFVARITSSGGSTNYADSVKGRFTISRDNAKNTVYLQMNSLKPEDTAVYYCAKRGWSSYGRYDSWGQGTQVTVSS”, the “polyreactivity (PSR sort gate)” value is listed as “high polyreactivity”. Next, “QVQLVESGGGLVQAGGSLRLTCAASGITFQYYVMGWYRHAPGKERELVAAITRRGGSTYYADSVKGRFTISRDNAKNTVYLQMNSLKPEDTAVYYCAAAITYLPAYRYNYWGQGTQVTVSS”: “high polyreactivity”; “QVQLVESGGGLVQAGGSLRLSCAASVNIFQSYTMGWYRQAPGKERELVARITARGGRTYYADSVQGRFTISRDNANNTVYLQMNSLKPEDTAFYYCAAQHRGPYGVDYWGQGTQVTVSS”: “high polyreactivity”. Next, “QVQLVESGGGLVQAGGTLRLSCAASGRTFTIYAMGWYRQAPGKEREWVAAITSGGSSYYADSVKGRFTISRDNATKTDYLQMNSLKPEDTAVEYCARGYAVSLVSRYYYWGQGTQVTVSS”: “low polyreactivity”; “QVQLVESGGGLVQAGGSLRLSCAASGSTFSTNAMGWYRQAPGKESELVASITRSGGSTYYADSVKGRFTISRDNAKNTVYLQMNSLKPEDTAVYYCNADGYYDYDYGYWGQGTQVTVSS”: “low polyreactivity”; “QVQLVESGGGLVQAGGSLRLSSAASGRIFPYYAMGWYRQAPGKETELVATISSGGRTNYADSVKGRFTISRDNAKYTVYLQMNSLKPEDTAVYYCAADYRKSRVFYGLYYWGQGTQVTVSS”: “high polyreactivity”.

Take “QVQLVESGGGLVQAGGSLRLSWAASGIILQEYTMGWYRPAHWKERELVAAISVRGGSTYYADSVKGRFTISRDHAKNTVYLQMNSLKPEDTAVYYCAAAYYRRPPGFNYWGQGTEVTVSS”: the “polyreactivity (PSR sort gate)” value is given as “high polyreactivity”.

Take “QVQLVESGGGLVQAGGSLRLSCAASGSTFSRDAMRWYRQPPGKERELVAAISSVGDTYYADSVKGRFTISRDNAKNTVYLQMNSLKPEDTAVYYCGATFVVKGTRFGYWGQGTQVTVSS”: the “polyreactivity (PSR sort gate)” value was “high polyreactivity”.

Take “QVQLVESGGGLDQAGGSLRLSCAASGYTFFSNAMGWYRQAPGKERELVAAITFSGGSTYYADSVKGRFTISRDNAKNTVYLHMNSLKPEDTAVYYCATRYYYHYPRKHIYNYWGQGTQVTVSS”: the “polyreactivity (PSR sort gate)” value is recorded as “high polyreactivity”. Take “QVQLVESGGGLVQAGGSLRLSCAASGSIFSAYVMGWYRQAPGKERELVAAITRSGGSTYYADSVKGRFTISRDNAKNTVYLQMNSLKPEDTAVYYCAVDYLLHYYSYIEDYWGQGTQVTVSS”: the “polyreactivity (PSR sort gate)” value was “low polyreactivity”. Turning to “QVQLVESGGGLVQAGGRLRLSCAASGSIFSRNAMGWDRQAPGQERELVAAITRSGGRTYYADSVKGRCTLSRDNAKTTVYLQMNSLKPEDTAVYYCNALASQEYDYWGQGTQVTVSS”, the “polyreactivity (PSR sort gate)” value is recorded as “high polyreactivity”. With “QVQLVESGGGLVQAGGSLRLSCAASGSIFYTYAMGWYRQAPGKERELVAAITYSGGSTYYADSVKGRFTISRDNAKNTVYLQMNSLKPEDTAVYYCAAYVIPGLGAEYGYWGQGTQVTVSS”, the “polyreactivity (PSR sort gate)” value is “low polyreactivity”.

“QVQLVEAGGGLVQAGGSLRLSCAPSGFTFGSYARRCYRQAPGKERELVAAIRLSGGSTTYADSVKGRFTITRDNEKKTVYLQMNSLKAEDTAVYYCAARVHVGYYWTFYYWGQGTQVTVSS”: the “polyreactivity (PSR sort gate)” value is reported as “high polyreactivity”. As for “QVQLVESGGGLVQAGGSLRLSCAASGFTFNKYAMGWYRQAPGKERELVAAISSSGGSTRYADSVKGRFTISRDNAKNTVYLQMNSLKPEDTAVYYCAVYVTRDSGWWLYDYWGQGTQVTVSS”, the “polyreactivity (PSR sort gate)” value was “high polyreactivity”. For “QVQLVESGGGLVQAGGSLRLSCAASGSTFYAYTMGWYRQAPGKERELVAAITSSGSNTYYADSVKGRFTISRDNAKNTVYLQMNSLKPEDTAVYYCAARITREGYYWGQGTQVTVSS”, the “polyreactivity (PSR sort gate)” value was “high polyreactivity”. As for “QVQLVESGGGLVQAGGSLRLSSAASGRIFAVYAMGLYRQAPGKERELVAAINWNDGSTYYADSVKGRFTISRDNAKNTVYLQMNSLKPEDTAVYYCAARALSRSVYGKSGYKYGYWGQGTQVTVSS”, the “polyreactivity (PSR sort gate)” value is recorded as “high polyreactivity”. On to “QVQLVESGGGLVQAGGSLRLSCAASGSLIRRYAMGWYRQAPGKEREFVAAISGRGGRTYYADSVKGRFTISRDNAKNTVYLQMNSLKPEDTAVYYCNAAFVTAEMDYWGQGTQVTVSS”, for which the “polyreactivity (PSR sort gate)” value is reported as “high polyreactivity”. Consider “QVQLVESGRGLVQAGGSLRISSAASGFIYRYYAMGWYRQAPGKERELVAAINTGGTTYYADSVKGRFTISRDNAKNTVYFQMNSLKPEDTAVYYCAKRWPRSSLGDYWGQGTQVTVSS”, for which the “polyreactivity (PSR sort gate)” value is listed as “high polyreactivity”. For the sequence “QVQHVESGGGLVQAGGSLRLSCAASGSILGGNAMGWYRQAPGKERELVADISGSGDSTYYADSVKGRFTISRDNAKNTVYLQMNSLKPEETAVYYCAVDYDSYWYGTYVNEYDYWGQGTQVTVSS”, the “polyreactivity (PSR sort gate)” value was “low polyreactivity”.

“QVQLVESGGGLVQAGGRLRLSSAASGFTLVLNAMGWYIPAPGKERELVAAIRRSAGSTYYADSVKGRFTISRDNAKNTVYLQMNRLKPEDTAVYYCAAGFLWAKYAYGHWGQATQVTVSS”: the “polyreactivity (PSR sort gate)” value was “low polyreactivity”. Consider “QVQLVESGGGLVQAGGSLRLSCAASGSTFRAYAMGWYRQAPGKERELVAAISRSGGSTYYADSVKGRFTISRDNAKNTVYLQMNSLKPEDTAVYYCNAAYKNYQYRPPNIDGQGDYWGQGTQVTVSS”, for which the “polyreactivity (PSR sort gate)” value is “high polyreactivity”. On to “QVQLVESGGGLVQAGGSLRLSCAASGSIFGYYAMGWYTQAPGKERELVASITRGGSTYYADSVKGRFTISRDNAKNTVYLQMNSLKPEDTAVYYCAAAQWWFRVRGARYYYWGQGTQVTVSS”, for which the “polyreactivity (PSR sort gate)” value is recorded as “high polyreactivity”. Consider “QVQLVESGGGLVQAGGSLRLSCAASGIIFSYNVMGWSREARGKEREFVAAISRSVGSTYYADSVKGRFTISRDNAKNTVYLPMNSLKPEDTAVYYCNARGKRRGKIPYSSYASSYDSWGQGTQVTVSS”, for which the “polyreactivity (PSR sort gate)” value is recorded as “high polyreactivity”. In the case of “QVQLVESGGGLVQAGGSLRLSCAASGSTFYDSAMGWYRQAPGKERELVAAINWSSDTTYYADSVKGRFTISRDNAKNTVYLQMNSLKPEDTAVYYCATDSAYRGYDYWGQGTQVNVSS”, the “polyreactivity (PSR sort gate)” value is listed as “low polyreactivity”. Consider “QVQLVESGGGLVQAGGSLRLSCAASGSIFPKYAMGWYRQAPGKERELVATISYRGGRTYYADSVKGRFTISRDNAKNTVYLQMNSLKPEDTAVYYCAGADYGSYPTYGYFEYYYWGQGTQVTVSS”, for which the “polyreactivity (PSR sort gate)” value is reported as “low polyreactivity”. For “QVQLVESGGGLVQAGGSLRLSCAASGNIFYRYAMGWYRQAPGKERELVAAIRSGSSTNYADSVKGRFTISRDNAKNTVYLQMNSLKPEDTAVYYCAARSKYTHSRQSDYWGQGTQVTVSS”, the “polyreactivity (PSR sort gate)” value was “low polyreactivity”. As to “QVQLVESGGGLVQAGGSHRLSCAASGIILYHYAMGWYRQAPGKERELVATITSGGSTNYADSVKGRFTISRDYAKNTVDLQMNSLKPEDTAVYYCAAVPSRYGRYRYYYWGQGTQVTVSS”, the “polyreactivity (PSR sort gate)” value is on record as “high polyreactivity”. For “QVQLVESGGGLVQAGGSLRLSCAASGSTLVYYDMGWYRKAPGKERELVATITGTDSTYYADSVKGRFTISRDNAKNTVYLQMNSLKPEDTADCAADRAASRPDYDYWGQGTQVTVSS”, the “polyreactivity (PSR sort gate)” value is listed as “low polyreactivity”. Regarding “QVQLVESGGGLVQAGGSLRLSCAASGRIFTGNAMGWYRQAPGKERELVAAISSRGGRTYYADSVKGRFTISRDNAKNTVYLQMNSLKPEDTAVYYCNAVAVAASRAYSWYDYWGQGTQVTVSS”, the “polyreactivity (PSR sort gate)” value is “high polyreactivity”. For “QVQLVESGGGLVQAGGSLRLSCAASGYIFRSYAMGWYRQAPGKERELVATISWIGGGTSYADSVKGRFTISRDNAKNTVYLQMNSLKPEDTAVYYCAAGPWAYGRRHAYYSRSFDYWGQGTQVTVSS”, the “polyreactivity (PSR sort gate)” value is on record as “high polyreactivity”. As to “QVQLVESGGGLVQAGGSLRLSCAASGSTFRYYAMGWYRQAPGKERELVAAITSGGSTNYADSVKGRFTISRDNAKNTVYLQMNSLKPEDTAVYYCAAGRRLRHRYNQGGPDYGYWGQGTQVTVSS”, the “polyreactivity (PSR sort gate)” value is reported as “low polyreactivity”.

“QVQLVESGGGLVQAGGSLRLSCAASGSIFGYYTMGWYRQAPGKERELVAAITRSGATTFYADSVKGRFTISRDKAKNTVYLQMNSLKPEDTAVYYCAAQARGYTRGYWGQGTQVTVSS”: the “polyreactivity (PSR sort gate)” value is on record as “high polyreactivity”. On to “QVQLQESGGGLVQAGGSLRLSCAASGTISPLPAMGWYRQAPGKEREFVPGIDTGAITNYADSVKGRFTISRDNAKNTVYLQMNSLKPEDTAVYYCAVFPAAYDYYERYYTYWGQGTQVTVSS”, for which the “polyreactivity (PSR sort gate)” value is given as “low polyreactivity”. For “QVQLGESGGGLVQAGGSLRLSCAASGIIFRYYAMAWYRQAPGKERELVAAISSSTGNTYYADSVKGRFTISRDNAKNTVYLQMNSLIPEDTAVYYCAARTRQISIVGYNYWGQGTQVTVSS”, the “polyreactivity (PSR sort gate)” value is listed as “high polyreactivity”. In the case of “QVQLVESGGGLVQAGGSLRLSSAASGRTFYYYAMGWYRQAPGKERELVAAITSRGTSTYYADSVKGRFTISRDNAKNTVYLQMNSLKPEDTAVFYCAAGFICYYGNGYDYWGQGTQVTVSS”, the “polyreactivity (PSR sort gate)” value is recorded as “high polyreactivity”. To “QVQLVESGGGIVQPGGRLRLSCAASGSILYGYAMGWYRQAPGKERELVAVITSGGSTNYADTVKGRFTISRDNAKNTVYLQMNSLKPEDTAVYYCAADPYSVYGGDYWGQGTQVTVSS” belongs “low polyreactivity”; to “QVQLVESGGGLVQAGGSLRLSCAASGRIFSRYTMGGYRQAPGKERELVAANSYRGGSTYYADSVKGRFTISRDNAKNTVYLQMNSLKPEDTAVYYCAARVQAIYRYDYWGQGTQVTVSS”, “high polyreactivity”. As for “QVQLVDSGGGLVQAGGSLRLSCAASGSIFTDNAMGWYIQAPGKERDLVAAITGRGGNTYYADSLKGRFPISRDNAKNTVYLQMNSLKPEDTAVYYCAARIFRTRKPLGYWGQGTQVTVSS”, the “polyreactivity (PSR sort gate)” value is “high polyreactivity”.

In the case of “QVQLVESGGGLVQAGGSLRLSCAASGLTFFKYTMGWYRQAPGKERELVAAISSSGGSTRYADSVKGRFTISRDNAKNTVYLQMNSLKPEDTAVYYCAKRGYTSSRRWIYDYWGQGTQVTVSS”, the “polyreactivity (PSR sort gate)” value was “high polyreactivity”. For the sequence “QVQLVESGGGLVQAGGSLRLSCAASGNIFSYYAMGWYRQATGIERELVAAISGRGTRTYYADSVKGRFSISRDNAMNTVYLQMNSLNPEDTAVYYCATEVRRLNEFDYWGQGTQVTVSS”, the “polyreactivity (PSR sort gate)” value is “high polyreactivity”.
